Test results taken from patent US20190183138.

Experiments:
bovine β-casein = target: T1, bovine β-casein (UniProt P02666)
T1 sequence: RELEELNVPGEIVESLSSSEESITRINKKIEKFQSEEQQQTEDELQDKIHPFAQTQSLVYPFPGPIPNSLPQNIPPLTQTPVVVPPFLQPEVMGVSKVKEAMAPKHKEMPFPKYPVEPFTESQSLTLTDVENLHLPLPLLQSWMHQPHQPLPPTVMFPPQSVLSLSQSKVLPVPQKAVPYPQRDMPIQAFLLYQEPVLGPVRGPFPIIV

bovine κ-casein = bovine κ-casein (UniProt P02668)
Chain of bovine κ-casein (P02668 22-190): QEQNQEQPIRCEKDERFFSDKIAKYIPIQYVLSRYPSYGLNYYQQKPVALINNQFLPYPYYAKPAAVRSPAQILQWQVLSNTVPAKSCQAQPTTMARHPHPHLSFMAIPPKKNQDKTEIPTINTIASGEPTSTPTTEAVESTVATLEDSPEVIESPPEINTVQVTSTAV

## Cynanchum otophyllum Schneid. protease QA (identified as asclepain of Asclepias Linn.)
Bovine β-casein
  hydrolysis of isolated casein as a function of time (SDS-PAGE): β-Casein and κ-casein were completely hydrolyzed after 4 h of incubation
Bovine κ-casein
  Km: 0.397 ± 0.002 mg/mL
  hydrolysis of isolated casein as a function of time (SDS-PAGE): hydrolysis by QA required almost 4 h
  kcat (min): 1.66 s⁻¹
  kcat./Km [mL/(mg · min)] (mL/(mg · min)): 251 ± 6.11
Bovine α-casein
  hydrolysis of isolated casein as a function of time (SDS-PAGE): α-casein was only partially hydrolyzed

## Cynanchum otophyllum Schneid. protease QC (identified as cysteine protease B of Calotropis R. Br.)
Bovine β-casein
  hydrolysis of isolated casein as a function of time (SDS-PAGE): The QC also exhibited a higher rate of hydrolysis than QA for β-casein and κ-casein
Bovine κ-casein
  Km: 1.708 ± 0.014 mg/mL
  hydrolysis of isolated casein as a function of time (SDS-PAGE): Most of the κ-casein was hydrolyzed by QC after 30 min of incubation
  kcat (min): 1.39 s⁻¹
  kcat./Km [mL/(mg · min)] (mL/(mg · min)): 49 ± 1.93
Bovine α-casein
  hydrolysis of isolated casein as a function of time (SDS-PAGE): α-casein was only partially hydrolyzed
